Target: the molecule itself
Test: crystal structure

B1: RUN1^TIR-E100A (domain or fragment, grapevine, UniProt V9M398 23-198, looked up)
chain: RTITYDVFLSFRGEDTRFNFTDHLYSALGRRGIRTFRDDKLRRGEAIAPELLKAIEESRSSVIVFSENYARSRWCLDALVKIMECHKDKKDPGHAVFPIFYHVDPSHVRKQEGSFGEAFAGYGENLKDKIPRWRTALTEAANLSGWPLQDGYESNQIKEITDSIFRRLKCKRLDAG
- binding result: binds
